According to paper PMC11208146, “Molecular basis for transposase activation by a dedicated AAA+ ATPase” (Nature, 2024):
Substitutions are numbered along the chain they refer to. In names and notes the source's numbering stands. Several values for one entry are separate records, joined by “and”; a condition that tells them apart may be missing. Equal entries are not always repeated.

B1: IstB ATPase, wild type, full length (IS5376, Geobacillus stearothermophilus) (enzyme, UniProt Q45619 1-251, looked up)
chain: MKERIHEYCHRLHLPVMAERWSAMAEYASTHNISYSEFLFRLLEAEIVEKQARSIQTLIKLSKLPYRKTIDTFDFTAQPSVDERRIRELLTLSFIDRKENILFLGPPGIGKTHLAISIGMEAIARGYKTYFITAHDLVNQLRRADQEGKLEKKLRVFVKPTVLIIDEMGYLKLDPNSAHYLFQVIARRYEHAPIILTSNKSFGEWGEIVGDSVLATAMLDRLLHHSIIFNLKGESYRLREKRLQEEKQKDQ
notes: IstB, AAA+ ATPase of the IS21 family member IS5376, Geobacillus stearothermophilus, full length; Tag cleaved on-column with PreScission protease; Assembles into a pentamer of dimers (decamer) on DNA with ATP; also called IstB WT; IstB AAA+ ATPase regulator; source: E. coli BL21 codon-plus (DE3) RIL, purified (Ni-Sepharose, amylose resin, gel filtration); not shown: His6, N-terminal, cleaved; MBP, …
B2: IstB E167Q (Walker B mutant) (enzyme, Geobacillus stearothermophilus, UniProt Q45619 1-251, looked up)
chain: B1 chain with E167Q
notes: IstB, AAA+ ATPase of IS5376, Geobacillus stearothermophilus, with the Walker B mutation E167Q; The methods describe only the purification of full-length IstB (His6-MBP tag, cleaved); also called WB; source: purified

Assays:
[1] = target: the molecule itself; assay: cryo-EM structure; IstB wild type with a 60-mer duplex DNA (6.5:1) and 1 mM ATP; 20 mM HEPES pH 7.5, 150 mM NaCl, 5 mM MgCl2, 1 mM DTT; 3.2 Å
[2] = target: the molecule itself; assay: cryo-EM structure; IstA pre-incubated with strand-transfer-complex DNA (3.3:1), then IstB E167Q (5:1 to IstA), 37 °C; 20 mM HEPES pH 7.5, 150 mM NaCl, 5 mM MgCl2, 1 mM ATP, 1 mM DTT; 3.6 Å

| Protein | stoichiometry N [1] | stoichiometry N [2] |
| --- | --- | --- |
| B1 | 10 and 8 | – |
| B2 | – | 10 and 20 |
